Assay results from patent publication US20240247063A1 (Janssen / Centocor, published 2024).
Where “and” joins values, the source holds several entries; their conditions need not be identical. Identical values can stand only once.

Columns and labels:
[1] = molecular target: T1, T Cell Receptor Beta Variable 17 (Vβ17) on the surface of human T cells (human); experiment: flow cytometry, CD8+ T cells from Vβ17 non-depleted PBMCs
T1 construct: whole, on cells; Polyclonal Vβ17+ T cells of donors; also called V 17; Vb17

[2] = molecular target: T1, T Cell Receptor Beta Variable 17 (Vβ17) …; experiment: flow cytometry, binding to CD8+ T cells isolated from PBMCs, donor D203517
[3] = molecular target: T1, T Cell Receptor Beta Variable 17 (Vβ17) …; experiment: flow cytometry, FLU MP 58-stimulated enriched CD8+ T cells, anti-human IgG4 Fc-PE
Protocol: Mouse anti-human IgG4 Fc-PE secondary antibody was used to detect the bispecific antibody.
Bispecific antibody binding affinities to CD8+ T cell were determined by flow cytometry.

[4] = molecular target: T1, T Cell Receptor Beta Variable 17 (Vβ17) …; experiment: flow cytometry, binding to CD8+ T cells isolated from PBMCs, donor HPU 08694
[5] = molecular target: T1, T Cell Receptor Beta Variable 17 (Vβ17) …; experiment: flow cytometry, binding to CD8+ T cells isolated from PBMCs, donor HPU 09381
[6] = molecular target: T1, T Cell Receptor Beta Variable 17 (Vβ17) …; experiment: flow cytometry, binding to CD8+ T cells isolated from PBMCs (only the Vβ17 non-depleted curve rises)
[7] = molecular target: T2, prostate-specific membrane antigen (PSMA) on C4-2B cells (human, UniProt Q04609 1-750); experiment: flow cytometry on C4-2B cells, APC secondary antibody
T2 construct: whole, on cells
Protocol: The C4-2B cells were centrifuged and re-suspended in DPBS and counted. 4 million cells were re-suspended in 8 mL of DPBS and 8 μL of Violet Fluorescent Dye was added and incubated for 15 min. in 4° C. Eight milliliters FACS buffer was added to neutralize mix and 200 μL per well was seeded. The plate was centrifuged and re-suspended in 100 μL of antibody dilutions accordingly and incubated for 30 min. in incubator. 10 μg/mL conc. of each antibodies were prepared in 200 μL stock and further diluted to 8 points by adding 60 μL to 120 μL of FACS serially buffer to get 3-fold dilution. 100 μL of FACS buffer were added to each well, centrifuged, re-suspended in 100 μL FACS buffer with 0.5 μL/well con. Secondary antibody tagged with APC & incubated for 30 min. 4° C. Next, 100 μL of FACS buffer was added to each well, centrifuged, re-suspended in 100 μL BD Cytofix & incubated for 10 min. 4° C. 100 μL of FACS buffer were added to each well, centrifuged, re-suspended in 100 μL FACS buffer, stored at 4° C. Data was acquired in Flow cytometer and the data was analyzed.

[8] = molecular target: T1, T Cell Receptor Beta Variable 17 (Vβ17) …; experiment: flow cytometry, MFI, pan T cells of donor NHV21-07171
Protocol: (§1) Binding assay was done with isolated Pan T cells from 2 donors. Pan T cells were isolated from Whole PBMCs. 1 μL Live dead (1:1000 diluted) and Fc Block 2 μL/well was added. 100 μL of the cell suspension was seeded in 96 well V bottom plate at 100,000 cell per well and incubated for 10 minutes at 4° C. The plate was washed by adding 190 μL FACS buffer spun at 1500 rpm for 5 minutes. 100 μL diluted test antibodies was added to the plate and the plate was incubated at 37° C. 5% CO₂ for 45 minutes. Wash step was repeated. 100 μL diluted Secondary antibody (0.5 μL/well in 100 μL FACS buffer) was added and the plate was incubated at 4° C. for 45 minutes. Wash step was repeated. 100 μL cytofix was added to the pellet and the plate was incubated at 4° C. for 10 minutes. Wash step was repeated. 100 μL FACS buffer was added to the pellet and sample was analyzed by Flow cytometry. Cells were gated on FSC/SSC, followed by live cell gating.

[9] = molecular target: T1, T Cell Receptor Beta Variable 17 (Vβ17) …; experiment: flow cytometry, MFI, pan T cells of donor NHV21-07174
Protocol: as §1

[10] = molecular target: T1, T Cell Receptor Beta Variable 17 (Vβ17) …; experiment: flow cytometry, % binding, pan T cells of donor NHV21-07171
Protocol: as §1

[11] = molecular target: T1, T Cell Receptor Beta Variable 17 (Vβ17) …; experiment: flow cytometry, % binding, pan T cells of donor NHV21-07174
Protocol: as §1

[12] = molecular target: T3, CD123 on Kasumi-3 AML cells (human, UniProt P26951 19-378); experiment: flow cytometry, binding to Kasumi3 AML cells
T3 construct: whole, on cells; also called interleukin-3 receptor; IL-3R
T3 sequence (P26951 19-378): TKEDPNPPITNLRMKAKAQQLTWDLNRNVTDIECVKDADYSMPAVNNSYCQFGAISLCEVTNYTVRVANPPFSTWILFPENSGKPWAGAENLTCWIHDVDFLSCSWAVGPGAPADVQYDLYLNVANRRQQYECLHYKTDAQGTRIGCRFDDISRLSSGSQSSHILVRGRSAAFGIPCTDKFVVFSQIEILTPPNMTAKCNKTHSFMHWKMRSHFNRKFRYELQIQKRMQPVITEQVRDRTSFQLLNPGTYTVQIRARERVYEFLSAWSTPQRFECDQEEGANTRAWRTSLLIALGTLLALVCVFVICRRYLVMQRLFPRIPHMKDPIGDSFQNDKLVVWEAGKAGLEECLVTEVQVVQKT

T1 sequence (A0A075B6N1 22-114): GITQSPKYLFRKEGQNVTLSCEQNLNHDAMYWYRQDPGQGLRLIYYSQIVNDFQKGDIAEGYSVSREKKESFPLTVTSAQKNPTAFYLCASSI
T2 sequence (Q04609 whole entry): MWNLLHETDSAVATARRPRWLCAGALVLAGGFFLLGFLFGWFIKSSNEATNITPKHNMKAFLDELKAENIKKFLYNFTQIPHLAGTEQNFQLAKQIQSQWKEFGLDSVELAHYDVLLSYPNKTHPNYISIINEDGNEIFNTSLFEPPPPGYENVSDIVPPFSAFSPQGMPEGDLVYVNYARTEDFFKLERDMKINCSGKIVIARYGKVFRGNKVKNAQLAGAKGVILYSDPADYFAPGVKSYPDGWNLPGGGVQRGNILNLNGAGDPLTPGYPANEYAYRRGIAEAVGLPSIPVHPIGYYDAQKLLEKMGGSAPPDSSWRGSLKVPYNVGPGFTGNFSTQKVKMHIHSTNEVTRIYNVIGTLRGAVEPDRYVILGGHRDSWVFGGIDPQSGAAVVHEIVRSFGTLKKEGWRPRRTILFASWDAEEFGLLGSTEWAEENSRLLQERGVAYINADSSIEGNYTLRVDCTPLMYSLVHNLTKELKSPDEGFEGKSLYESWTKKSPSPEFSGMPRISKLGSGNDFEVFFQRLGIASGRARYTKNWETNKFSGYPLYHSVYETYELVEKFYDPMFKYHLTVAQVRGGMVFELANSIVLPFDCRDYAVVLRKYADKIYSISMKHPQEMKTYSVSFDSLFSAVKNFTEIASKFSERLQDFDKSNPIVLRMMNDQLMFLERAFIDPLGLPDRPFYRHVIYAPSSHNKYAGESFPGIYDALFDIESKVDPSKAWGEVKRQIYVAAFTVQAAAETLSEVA

B1: VB11 (anti-Vβ17/anti-CD123) bispecific antibody (bispecific antibody, human IgG4 S228P, kappa, F234A L235A)
heavy 1: QVQLQESGPGLVKPSETLSLTCTVSGYSITSGYFWNWIRQPPGKGLEWIGYISYDGSNNYNPSLKSRVTISRDTSKNQFSLKLSSVTAADTAVYYCASPSPGTGYAVDYWGQGTLVTVSSASTKGPSVFPLAPCSRSTSESTAALGCLVKDYFPEPVTVSWNSGALTSGVHTFPAVLQSSGLYSLSSVVTVPSSSLGTKTYTCNVDHKPSNTKVDKRVESKYGPPCPPCPAPEAAGGPSVFLFPPKPKDTLMISRTPEVTCVVVDVSQEDPEVQFNWYVDGVEVHNAKTKPREEQFNSTYRVVSVLTVLHQDWLNGKEYKCKVSNKGLPSSIEKTISKAKGQPREPQVYTLPPSQEEMTKNQVSLSCAVKGFYPSDIAVEWESNGQPENNYKTTPPVLDSDGSFFLVSRLTVDKSRWQEGNVFSCSVMHEALHNRFTQKSLSLSLGK
light 1: DIQMTQSPSSLSASVGDRVTITCRSSQSLVHSNGNTYLHWYQQKPGKAPKFLIYKVSNRFSGVPSRFSGSGSGTDFTLTISSLQPEDFATYYCSQSTHVPFTFGQGTKLEIKRTVAAPSVFIFPPSDEQLKSGTASVVCLLNNFYPREAKVQWKVDNALQSGNSQESVTEQDSKDSTYSLSSTLTLSKADYEKHKVYACEVTHQGLSSPVTKSFNRGEC
heavy 2: EVQLVQSGAEVKKPGESLKISCKGSGYSFTSYWISWVRQMPGKGLEWMGIIDPSDSDTRYSPSFQGQVTISADKSISTAYLQWSSLKASDTAMYYCARGDGSTDLDYWGQGTLVTVSSASTKGPSVFPLAPCSRSTSESTAALGCLVKDYFPEPVTVSWNSGALTSGVHTFPAVLQSSGLYSLSSVVTVPSSSLGTKTYTCNVDHKPSNTKVDKRVESKYGPPCPPCPAPEAAGGPSVFLFPPKPKDTLMISRTPEVTCVVVDVSQEDPEVQFNWYVDGVEVHNAKTKPREEQFNSTYRVVSVLTVLHQDWLNGKEYKCKVSNKGLPSSIEKTISKAKGQPREPQVYTLPPSQEEMTKNQVSLWCLVKGFYPSDIAVEWESNGQPENNYKTTPPVLDSDGSFFLYSRLTVDKSRWQEGNVFSCSVMHEALHNHYTQKSLSLSLGK
light 2: EIVLTQSPGTLSLSPGERATLSCRASQSVSSSYLAWYQQKPGQAPRLLIYGASSRATGIPDRFSGSGSGTDFTLTISRLEPEDFAVYYCQQDYGFPWTFGQGTKVEIKRTVAAPSVFIFPPSDEQLKSGTASVVCLLNNFYPREAKVQWKVDNALQSGNSQESVTEQDSKDSTYSLSSTLTLSKADYEKHKVYACEVTHQGLSSPVTKSFNRGEC
EC50 (read off the curve) [1]: ~0.2 µg/mL
EC50 [2]: 1.26 nM
EC50 (read off the curve) [2]: ~0.2 µg/mL
EC50 [3]: 1.35 µg/mL and 9 nM
EC50 [4]: 1.9 nM
EC50 (read off the curve) [4]: ~0.2 µg/mL
EC50 [5]: 0.8 nM
EC50 (read off the curve) [5]: ~0.1 µg/mL
EC50 [6]: 12.2 nM

B2: VB17B25 (PSMB410 × B17B21-N33S) (bispecific antibody, human IgG1, kappa, L234A L235A)
chain: not shown
heavy: QVQLQESGPGLVKPSETLSLTCTVSGYSITSGYFWNWIRQPPGKGLEWIGYISYDGSNNYNPSLKSRVTISRDTSKNQFSLKLSSVTAADTAVYYCASPSPGTGYAVDYWGQGTLVTVSSASTKGPSVFPLAPSSKSTSGGTAALGCLVKDYFPEPVTVSWNSGALTSGVHTFPAVLQSSGLYSLSSVVTVPSSSLGTQTYICNVNHKPSNTKVDKKVEPKSCDKTHTCPPCPAPEAAGGPSVFLFPPKPKDTLMISRTPEVTCVVVSVSHEDPEVKFNWYVDGVEVHNAKTKPREEQYNSTYRVVSVLTVLHQDWLNGKEYKCKVSNKALPAPIEKTISKAKGQPREPQVYTLPPSREEMTKNQVSLSCAVKGFYPSDIAVEWESNGQPENNYKTTPPVLDSDGSFFLVSKLTVDKSRWQQGNVFSCSVMHEALHNRFTQKSLSLSPGK
light: DIQMTQSPSSLSASVGDRVTITCRSSQSLVHSSGNTYLHWYQQKPGKAPKFLIYKVSNRFSGVPSRFSGSGSGTDFTLTISSLQPEDFATYYCSQSTHVPFTFGQGTKLEIKRTVAAPSVFIFPPSDEQLKSGTASVVCLLNNFYPREAKVQWKVDNALQSGNSQESVTEQDSKDSTYSLSSTLTLSKADYEKHKVYACEVTHQGLSSPVTKSFNRGEC
notes: First chain is the PSMB410 scFv-Fc; also called Vβ17B25; Vβ17×PSMA
EC50 [7]: 2.1 µg/mL
EC50 [8]: 1.5 µg/mL
EC50 [9]: ~3 µg/mL
EC50 [10]: 0.3 µg/mL
EC50 [11]: 0.2 µg/mL

B3: VB13 (Vβ17×Null) bispecific antibody (bispecific antibody, human IgG4 S228P, kappa, F234A L235A)
heavy 1: QVQLQESGPGLVKPSETLSLTCTVSGYSITSGYFWNWIRQPPGKGLEWIGYISYDGSNNYNPSLKSRVTISRDTSKNQFSLKLSSVTAADTAVYYCASPSPGTGYAVDYWGQGTLVTVSSASTKGPSVFPLAPCSRSTSESTAALGCLVKDYFPEPVTVSWNSGALTSGVHTFPAVLQSSGLYSLSSVVTVPSSSLGTKTYTCNVDHKPSNTKVDKRVESKYGPPCPPCPAPEAAGGPSVFLFPPKPKDTLMISRTPEVTCVVVDVSQEDPEVQFNWYVDGVEVHNAKTKPREEQFNSTYRVVSVLTVLHQDWLNGKEYKCKVSNKGLPSSIEKTISKAKGQPREPQVYTLPPSQEEMTKNQVSLSCAVKGFYPSDIAVEWESNGQPENNYKTTPPVLDSDGSFFLVSRLTVDKSRWQEGNVFSCSVMHEALHNRFTQKSLSLSLGK
light 1: DIQMTQSPSSLSASVGDRVTITCRSSQSLVHSNGNTYLHWYQQKPGKAPKFLIYKVSNRFSGVPSRFSGSGSGTDFTLTISSLQPEDFATYYCSQSTHVPFTFGQGTKLEIKRTVAAPSVFIFPPSDEQLKSGTASVVCLLNNFYPREAKVQWKVDNALQSGNSQESVTEQDSKDSTYSLSSTLTLSKADYEKHKVYACEVTHQGLSSPVTKSFNRGEC
heavy 2: not shown
light 2: not shown
notes: Knob-into-hole human IgG4; also called Vβ17XNULL; V 17 null control bispecific
binding result [12]: no binding (tested: about 20 µg/mL)
EC50 (read off the curve) [1]: ~0.3 µg/mL
EC50 [2]: 1.4 nM
EC50 (read off the curve) [2]: ~0.2 µg/mL
EC50 [3]: 2.8 µg/mL and 18.7 nM
EC50 [4]: 1.5 nM
EC50 (read off the curve) [4]: ~0.3 µg/mL
EC50 [5]: 1.5 nM
EC50 (read off the curve) [5]: ~0.2 µg/mL
EC50 [6]: 12.6 nM
